Measurements reported in patent US20160168253A1 (Hoffmann-La Roche, published 2016).

Molecular target: T1, Aβ1-40 fibers (human)
T1 construct: Coated on Maxisorp plates for 3 days at 37 C to produce fibrillar Abeta; also called fibrillar Aβ; fibrillar Abeta
Experiment: ELISA on plate-coated fibrillar Aβ(1-40), detection with anti-human-IgG-HRP
Protocol: Binding of fusion polypeptide to fibrillar Aβ was measured by an ELISA assay. Briefly, […] was coated at 7 μg/mL in PBS onto Maxisorp plates for 3 days at 37° C. to produce fibrillar Abeta, then dried for 3 h at RT. The plate was blocked with 1% Crotein C and 0.1% RSA in PBS (blocking buffer) for 1 h at RT, then washed once with wash buffer. Fusion polypeptides or controls were added at concentrations up to 100 nM in blocking buffer and incubated at 4° C. overnight. After 4 wash steps, constructs were detected by addition of anti-human-IgG-HRP (Jackson Immunoresearch) at 1:10,000 dilution in blocking buffer […], followed by 6 washes and incubation in TMB (Sigma). Absorbance was read out at 450 nm after stopping color development with 1 N HCl (see FIG. 1).

- binding result: binds
B1: Mab 31 = Gantenerumab (INN) (antibody, human IgG1, V domains shown)
VH: QVELVESGGGLVQPGGSLRLSCAASGFTFSSYAMSWVRQAPGKGLEWVSAINASGTRTYYADSVKGRFTISRDNSKNTLYLQMNSLRAEDTAVYYCARGKGNTHKPYGYVRYFDVWGQGTLVTVSS
VL: DIVLTQSPATLSLSPGERATLSCRASQSVSSSYLAWYQQKPGQAPRLLIYGASSRATGVPARFSGSGSGTDFTLTISSLEPEDFATYYCLQIYNMPITFGQGTKVEIKR
notes: Human IgG1 with kappa light chain; Id; No. 13; also called mAb31(HEK); naked anti-Aβ monoclonal antibody
